Test results published in patent US20220380768A1 (TALLAC THERAPEUTICS, published 2022).

Tests used:
[1] = target: T1, human CD22 on B cells of human PBMCs (human, UniProt P20273 20-847); assay: flow cytometry; Alexa Fluor 647-labelled antibody on CD20+ B cells of human PBMCs
T1 construct: whole, on cells; also called CD22 on human B cells
Description: (§1) Binding of humanized anti-CD22 antibodies to human or cynomolgus PBMCs was measured by flow cytometry. Trima residuals were received from Vitalant and cynomolgus monkey whole blood were received from BioIVT. Both were diluted 1:4 with Phosphate Buffered Saline (PBS, Gibco). Diluted blood was split into two tubes and underplayed with 15 mL Ficoll-Paque (GE Healthcare). Tubes were centrifuged for 30 minutes at 400×g. PBMCs were collected from the interface, washed and resuspended in FACS buffer (PBS with 0.5% Bovine Serum Albumin (Gibco)). 100K PBMCs from human and cynomolgus monkey were plated in 96-well plates and pelleted by centrifugation for five minutes at 400×g and stained at 4° C. in 100 μl Fixable Viability Dye eFluor 780 (Thermo Fisher) diluted 1:4000 in PBS. Cells were centrifuged and stained at 4° C. in 100 μl FACS buffer for 30 minutes containing FcR Blocking Reagent (Miltenyi Biotec), anti-CD20 and Alexa Fluor 647 conjugated CD22 binding antibodies, which were labeled using Molecular Probes Alexa Fluor 647 Protein Labeling kit (Molecular Probes) according to manufacturer's protocol. Cells were centrifuged and washed twice in 200 μl FACS buffer and fixed in 100 μl 0.5% paraformaldehyde. Cells were analyzed on Attune NxT Flow Cytometer (Thermo Fisher), with subsequent data analysis by Flowjo 10.7 (Treestar). Dead cells were excluded by gating on the eFluor 780-negative population. CD20+ cells were gated to identify B cells and median fluorescent intensity for CD22 was determined.

[2] = target: T2, cynomolgus monkey CD22 on B cells of cynomolgus PBMCs (cynomolgus monkey); assay: flow cytometry; Alexa Fluor 647-labelled antibody on CD20+ B cells of cynomolgus PBMCs
T2 construct: whole, on cells; also called cynomolgus CD22; Cyno CD22
Description: as §1

[3] = target: T3, human CD22 (d1 to d7 domain according to NP_001762.2) (human, UniProt P20273 20-687); assay: SPR; summary table, column 'CD22 KD (nM)'
T3 construct: domain: d1 to d7 domain; also called human CD22-gly; Siglec-2

[4] = target: T1, human CD22 on B cells of human PBMCs; assay: flow cytometry; Alexa Fluor 647-labelled antibody, human PBMCs
Description: as §1
(§2) The fold increase in binding was determined by calculating the ratio of CD22 median fluorescent intensity on CD20⁺ over CD20⁻ cells.

[5] = target: T2, cynomolgus monkey CD22 on B cells of …; assay: flow cytometry; Alexa Fluor 647-labelled antibody, cynomolgus PBMCs
Description: as §1, §2

[6] = target: T3, human CD22 (d1 to d7 domain according …); assay: SPR; mAb supernatant captured on protein A chip, human CD22 injected
Description: Binding of humanized anti-CD22 antibodies to human CD22 was measured by surface plasmon resonance (SPR). For assessment of binding by SPR, biotinylated protein A (15 μg/mL) was immobilized to the surface of an NLC chip. 30 μL of mAb supernatant was added to 150 μL of PBS-T and captured over the protein A surface. Serial dilutions of human CD22-gly (300 nM, 3× dilution) were injected over the mAb-coated chips, and binding kinetics were determined. Chips were regenerated using 4:1 v/v of Pierce IgG elution butter/4M NaCl.

B1: TNT70 (antibody, human IgG1, kappa, V domains shown)
VH: QVQLLESGGGVVQPGGSLRLSCAASGFAFSIYDMNWVRQAPGKGLEWVSAISSGGGTTYYADSVKGRFTISRDNAKNSLYLQMNSLRAEDTAVYYCARHSGYGTHWGVLFAYWGRGTLVTVSS
VL: DIQMTQSPSSLSASVGDRVTITCRASQDIHGYLNWYQQKPGKAPKLLIYYTSILHSGVPSRFSGSGSGTDFTLTISSLQPEDFATYFCQQGNTLPWTFGQGTKLEIKR
- CD22 Median Fluorescent Intensity on CD20+ cells [1]: 1560
- CD22 Median Fluorescent Intensity on CD20+ cells [2]: 1290

B2: TNT79 (antibody, human IgG1, kappa, V domains shown)
VH: EVQLVESGGGLVQPGGSLRLSCAASGFTFSSYEMNWVRQAPGKGLEWVSYISSSGSTIYYADSVKGRFTISRDNAKNSLYLQMNSLRAEDTAVYYCARHSGYGTHWGVLFAYWGRGTLVTVSS
VL: DIQMTQSPSSLSASVGDRVTITCRASQSISSYLNWYQQKPGKAPKLLIYAASSLQSGVPSRFSGSGSGTDFTLTISSLQPEDFATYYCQQGNTLPWTFGQGTKLEIKR
- Kd [3]: 23 nM
- CD22 Median Fluorescent Intensity on CD20+ cells [1]: 1300
- CD22 Median Fluorescent Intensity on CD20+ cells [2]: 349

B3: TNT86 (antibody, human IgG1, kappa, V domains shown)
VH: QVQLLESGGGVVQPGGSLRLSCAASGFAFSIYDMNWVRQAPGKGLEWVSAISSGGGTTYYADSVKGRFTISRDNAKNSLYLQMNSLRAEDTAVYYCARHSGYGTHWGVLFAYWGRGTLVTVSS
VL: DIVMTQTPLSLSVTPGQPASISCRASQDIHGYLNWYQQKPGQSPQLLIYYTSILHSGVPDRFSGSGSGTDFTLKISRVEAEDVGVYFCQQGNTLPWTFGGGTKLEIKR
- Kd [3]: 1.1 nM
- CD22: CD20+/CD20- (ratio of median fluorescent intensity) [4]: 23.9 fold
- CD22: CD20+/CD20- (ratio of median fluorescent intensity) [5]: 10.9 fold
- Kd [6]: 1.09 nM
- koff [6]: 0.000141 s⁻¹
- kon [6]: 130000 M⁻¹ s⁻¹
- CD22 Median Fluorescent Intensity on CD20+ cells [1]: 1570
- CD22 Median Fluorescent Intensity on CD20+ cells [2]: 1430

B4: TNT75 (antibody, human IgG1, kappa, V domains shown)
VH: EVQLVESGGGLVQPGGSLRLSCAASGFTFSSYEMNWVRQAPGKGLEWVSYISSSGSTIYYADSVKGRFTISRDNAKNSLYLQMNSLRAEDTAVYYCARHSGYGTHWGVLFAYWGRGTLVTVSS
VL: DIQMTQSPSSVSASVGDRVTITCRASQDIHGYLAWYQQKPGKAPKLLIYYTSSLQSGVPSRFSGSGSGTDFTLTISSLQPEDFATYYCQQGNTLPWTFGQGTKLEIKR
- Kd [3]: 30 nM
- CD22: CD20+/CD20- (ratio of median fluorescent intensity) [4]: 26.7 fold
- CD22: CD20+/CD20- (ratio of median fluorescent intensity) [5]: 6.7 fold
- Kd [6]: 30 nM
- koff [6]: 0.0084 s⁻¹
- kon [6]: 280000 M⁻¹ s⁻¹
- CD22 Median Fluorescent Intensity on CD20+ cells [1]: 1630
- CD22 Median Fluorescent Intensity on CD20+ cells [2]: 588

B5: TNT74 (antibody, human IgG1, kappa, V domains shown)
VH: QVQLLESGGGVVQPGGSLRLSCAASGFAFSIYDMNWVRQAPGKGLEWVSAISSGGGTTYYADSVKGRFTISRDNAKNSLYLQMNSLRAEDTAVYYCARHSGYGTHWGVLFAYWGRGTLVTVSS
VL: DIQMTQSPSSVSASVGDRVTITCRASQDIHGYLAWYQQKPGKAPKLLIYYTSSLQSGVPSRFSGSGSGTDFTLTISSLQPEDFATYYCQQGNTLPWTFGQGTKLEIKR
- Kd [3]: 16 nM
- Kd [6]: 15.6 nM
- CD22 Median Fluorescent Intensity on CD20+ cells [1]: 1310

B6: TNT78 (antibody, human IgG1, kappa, V domains shown)
VH: QVQLLESGGGVVQPGGSLRLSCAASGFAFSIYDMNWVRQAPGKGLEWVSAISSGGGTTYYADSVKGRFTISRDNAKNSLYLQMNSLRAEDTAVYYCARHSGYGTHWGVLFAYWGRGTLVTVSS
VL: DIQMTQSPSSLSASVGDRVTITCRASQSISSYLNWYQQKPGKAPKLLIYAASSLQSGVPSRFSGSGSGTDFTLTISSLQPEDFATYYCQQGNTLPWTFGQGTKLEIKR
- Kd [3]: 25 nM
- CD22: CD20+/CD20- (ratio of median fluorescent intensity) [4]: 19.8 fold
- CD22: CD20+/CD20- (ratio of median fluorescent intensity) [5]: 1.2 fold
- Kd [6]: 24.9 nM
- koff [6]: 0.00485 s⁻¹
- kon [6]: 195000 M⁻¹ s⁻¹
- CD22 Median Fluorescent Intensity on CD20+ cells [1]: 1210
- CD22 Median Fluorescent Intensity on CD20+ cells [2]: 112

B7: TNT76 (antibody, human IgG1, kappa, V domains shown)
VH: QVQLQESGPGLVKPSDTLSLTCTVSGFAFSIYDMSWIRQPPGKGLEWIAYISSGGGTTYYNPSLKSRVTISVDTSKNQFSLKLSSVTAADTAVYYCARHSGYGTHWGVLFAYWGRGTLVTVSS
VL: DIQMTQSPSSVSASVGDRVTITCRASQDIHGYLAWYQQKPGKAPKLLIYYTSSLQSGVPSRFSGSGSGTDFTLTISSLQPEDFATYYCQQGNTLPWTFGQGTKLEIKR
- CD22 Median Fluorescent Intensity on CD20+ cells [1]: 1190
- CD22 Median Fluorescent Intensity on CD20+ cells [2]: 140

B8: TNT73 (antibody, human IgG1, kappa, V domains shown)
VH: EVQLVESGGGLVQPGGSLRLSCAASGFAFSIYDMSWVRQAPGKGLEWVAYISSGGGTTYYPDTVKGRFTISRDNSKNTLYLQMNSLRAEDTAVYYCARHSGYGTHWGVLFAYWGRGTLVTVSS
VL: DIQMTQSPSSVSASVGDRVTITCRASQDIHGYLAWYQQKPGKAPKLLIYYTSSLQSGVPSRFSGSGSGTDFTLTISSLQPEDFATYYCQQGNTLPWTFGQGTKLEIKR
- Kd [3]: 14 nM
- CD22: CD20+/CD20- (ratio of median fluorescent intensity) [4]: 19.9 fold
- CD22: CD20+/CD20- (ratio of median fluorescent intensity) [5]: 1.9 fold
- Kd [6]: 14.5 nM
- koff [6]: 0.0023 s⁻¹
- kon [6]: 158000 M⁻¹ s⁻¹
- CD22 Median Fluorescent Intensity on CD20+ cells [1]: 1410
- CD22 Median Fluorescent Intensity on CD20+ cells [2]: 216

B9: TNT87 (antibody, human IgG1, kappa, V domains shown)
VH: EVQLVESGGGLVQPGGSLRLSCAASGFTFSSYEMNWVRQAPGKGLEWVSYISSSGSTIYYADSVKGRFTISRDNAKNSLYLQMNSLRAEDTAVYYCARHSGYGTHWGVLFAYWGRGTLVTVSS
VL: DIVMTQTPLSLSVTPGQPASISCRASQDIHGYLNWYQQKPGQSPQLLIYYTSILHSGVPDRFSGSGSGTDFTLKISRVEAEDVGVYFCQQGNTLPWTFGGGTKLEIKR
- Kd [3]: 0.7 nM
- CD22 Median Fluorescent Intensity on CD20+ cells [1]: 1440
- CD22 Median Fluorescent Intensity on CD20+ cells [2]: 1370

B10: TNT69 (antibody, human IgG1, kappa, V domains shown)
VH: EVQLVESGGGLVQPGGSLRLSCAASGFAFSIYDMSWVRQAPGKGLEWVAYISSGGGTTYYPDTVKGRFTISRDNSKNTLYLQMNSLRAEDTAVYYCARHSGYGTHWGVLFAYWGRGTLVTVSS
VL: DIQMTQSPSSLSASVGDRVTITCRASQDIHGYLNWYQQKPGKAPKLLIYYTSILHSGVPSRFSGSGSGTDFTLTISSLQPEDFATYFCQQGNTLPWTFGQGTKLEIKR
- Kd [3]: 0.6 nM
- CD22: CD20+/CD20- (ratio of median fluorescent intensity) [4]: 25.4 fold
- CD22: CD20+/CD20- (ratio of median fluorescent intensity) [5]: 14.9 fold
- Kd [6]: 0.624 nM
- koff [6]: 0.000126 s⁻¹
- kon [6]: 201000 M⁻¹ s⁻¹
- CD22 Median Fluorescent Intensity on CD20+ cells [1]: 1610
- CD22 Median Fluorescent Intensity on CD20+ cells [2]: 1410

B11: TNT80 (antibody, human IgG1, kappa, V domains shown)
VH: QVQLQESGPGLVKPSDTLSLTCTVSGFAFSIYDMSWIRQPPGKGLEWIAYISSGGGTTYYNPSLKSRVTISVDTSKNQFSLKLSSVTAADTAVYYCARHSGYGTHWGVLFAYWGRGTLVTVSS
VL: DIQMTQSPSSLSASVGDRVTITCRASQSISSYLNWYQQKPGKAPKLLIYAASSLQSGVPSRFSGSGSGTDFTLTISSLQPEDFATYYCQQGNTLPWTFGQGTKLEIKR
- CD22 Median Fluorescent Intensity on CD20+ cells [1]: 1210
- CD22 Median Fluorescent Intensity on CD20+ cells [2]: 159

B12: TNT85 (antibody, human IgG1, kappa, V domains shown)
VH: EVQLVESGGGLVQPGGSLRLSCAASGFAFSIYDMSWVRQAPGKGLEWVAYISSGGGTTYYPDTVKGRFTISRDNSKNTLYLQMNSLRAEDTAVYYCARHSGYGTHWGVLFAYWGRGTLVTVSS
VL: DIVMTQTPLSLSVTPGQPASISCRASQDIHGYLNWYQQKPGQSPQLLIYYTSILHSGVPDRFSGSGSGTDFTLKISRVEAEDVGVYFCQQGNTLPWTFGGGTKLEIKR
- Kd [3]: 1.3 nM
- CD22: CD20+/CD20- (ratio of median fluorescent intensity) [4]: 23.1 fold
- CD22: CD20+/CD20- (ratio of median fluorescent intensity) [5]: 9.6 fold
- Kd [6]: 1.25 nM
- koff [6]: 0.000169 s⁻¹
- kon [6]: 135000 M⁻¹ s⁻¹
- CD22 Median Fluorescent Intensity on CD20+ cells [1]: 1580
- CD22 Median Fluorescent Intensity on CD20+ cells [2]: 1380
